Biological target: T1, PD-1蛋白 (PD-1抗原) (human, UniProt Q15116 25-167, limits assumed)
T1 construct: The construct is not described; also called A蛋白
Experiment: SPR, Bio-Rad ProteOn XPR36, antibody coupled to channel L6, PD-1 antigen as analyte

T1 sequence (Q15116 25-167 limits assumed): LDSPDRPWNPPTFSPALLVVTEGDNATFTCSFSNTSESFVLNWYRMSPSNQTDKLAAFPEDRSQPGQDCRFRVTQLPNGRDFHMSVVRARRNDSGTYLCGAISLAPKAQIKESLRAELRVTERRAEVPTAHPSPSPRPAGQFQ

B1: 抗人PD-1的单克隆抗体2D1 (2D1株单克隆抗体) (antibody, V domains shown)
VH: QVQLQQSGDDLVKPGASVKLSCKASGYTFTSYWINWIKQRPGQGLEWIGRIAPGSGSTYYNEMFKGKATLTVDTSSSTAYIQLSSLSSEDSAVYFCARLGQYYAMDYWGQGTTLTVSS
VL: DIVMTQTPLSLPVSLGDQASISCRSSQSLVHSNGNTYLHWYLQKPGQSPKLLIYKVSNRFSGVPDRFSGSGSGTDFTLKISRVEAEDLGVYFCSQSTHVPYTFGGGTKLELKR
notes: Mouse monoclonal antibody from a Balb/c x SP2/0 hybridoma; It was purified from ascites, and hybridoma supernatant was used in flow cytometry; it was detected with anti-mouse IgG; also called 2D1-1
Q: Which results are given for B1?
A: Kd: 0.134 nM; koff: 2.94e-05 s⁻¹; kon: 220000 M⁻¹ s⁻¹

Source: patent CN106831988A (SHENZHEN INST OF ADV TECH CAS, dated 2017)
